What all share (assay): cell-based or functional assay
Assay [1] concerns the target T1, human amylin receptor (amylin 3(a) receptor: human calcitonin receptor plus RAMP-3) (human, UniProt P30988 25-474; O60896 24-148, limits assumed).
T1 sequence (looked up) 1: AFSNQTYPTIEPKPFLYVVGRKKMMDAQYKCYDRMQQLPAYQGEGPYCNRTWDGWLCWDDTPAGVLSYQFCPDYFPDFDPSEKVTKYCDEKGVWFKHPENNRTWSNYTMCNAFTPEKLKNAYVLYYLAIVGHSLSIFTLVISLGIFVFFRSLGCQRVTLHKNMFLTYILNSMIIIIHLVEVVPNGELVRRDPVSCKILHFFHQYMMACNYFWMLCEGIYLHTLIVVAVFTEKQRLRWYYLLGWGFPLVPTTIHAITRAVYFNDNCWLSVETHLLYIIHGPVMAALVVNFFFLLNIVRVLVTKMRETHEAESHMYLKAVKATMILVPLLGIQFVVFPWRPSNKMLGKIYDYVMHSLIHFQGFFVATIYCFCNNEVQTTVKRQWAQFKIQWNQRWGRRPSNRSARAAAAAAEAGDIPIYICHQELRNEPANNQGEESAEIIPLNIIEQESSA
T1 sequence (looked up) 2: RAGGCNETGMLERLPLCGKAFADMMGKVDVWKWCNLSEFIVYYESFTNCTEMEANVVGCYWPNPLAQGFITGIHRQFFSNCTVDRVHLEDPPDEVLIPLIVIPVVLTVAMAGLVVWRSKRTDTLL

The target of assay [2] is T2, human calcitonin receptor (human, UniProt P30988 25-474).
T2 sequence (looked up): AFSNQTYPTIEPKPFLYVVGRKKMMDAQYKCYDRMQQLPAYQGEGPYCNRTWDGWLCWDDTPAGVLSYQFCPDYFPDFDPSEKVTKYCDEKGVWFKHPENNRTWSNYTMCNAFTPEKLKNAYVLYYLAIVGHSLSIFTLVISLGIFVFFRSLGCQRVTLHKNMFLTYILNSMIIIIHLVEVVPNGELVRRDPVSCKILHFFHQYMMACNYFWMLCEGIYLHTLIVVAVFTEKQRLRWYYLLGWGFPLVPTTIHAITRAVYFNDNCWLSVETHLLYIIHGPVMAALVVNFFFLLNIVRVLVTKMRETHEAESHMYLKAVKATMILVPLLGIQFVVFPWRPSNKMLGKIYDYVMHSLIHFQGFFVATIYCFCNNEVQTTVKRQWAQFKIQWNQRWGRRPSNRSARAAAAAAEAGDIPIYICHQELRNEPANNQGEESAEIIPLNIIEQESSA

For assay [3], the target named is T3, human calcitonin receptor (human, UniProt P30988 25-474).
T3 sequence (looked up): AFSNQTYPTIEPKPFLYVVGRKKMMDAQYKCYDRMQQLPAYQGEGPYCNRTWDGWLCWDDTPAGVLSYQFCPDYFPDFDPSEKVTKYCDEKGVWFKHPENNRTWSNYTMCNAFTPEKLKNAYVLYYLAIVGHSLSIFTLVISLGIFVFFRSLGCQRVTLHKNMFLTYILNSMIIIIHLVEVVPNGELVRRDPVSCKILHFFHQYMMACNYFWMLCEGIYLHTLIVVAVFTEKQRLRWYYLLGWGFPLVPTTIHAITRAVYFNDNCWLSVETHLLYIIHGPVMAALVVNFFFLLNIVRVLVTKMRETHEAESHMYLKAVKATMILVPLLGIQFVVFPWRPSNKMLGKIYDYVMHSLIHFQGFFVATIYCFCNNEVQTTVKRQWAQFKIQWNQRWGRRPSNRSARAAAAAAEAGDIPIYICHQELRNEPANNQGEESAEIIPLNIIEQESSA
The source holds these as a separate data set.

Here are results for six molecules from patent publication US20140087995A1 (published 2014).

Where two headings read alike, the source gives them in different places. Numbered stars: 1 amine (or outer) side, 2 acyl side, 3 side chain; on linkers, the order of the positions; unused ones are H or OH. Bridge positions count the residues as written; N and C are the ends. Side chains are listed from the residue outwards. Ends that are not written are not given here. * marks the point of attachment. C20 diacid = O=C(O)CCCCCCCCCCCCCCCCCCC(=O)*; γGlu = O=C(O)[C@H](CCC(=O)[*:2])N[*:1]; AEEA = NCCOCCOCC(=O)O

B1: N^α1-[(4S)-4-carboxy-4-(19-carboxynonadecanoylamino)butanoyl]-[Arg17,Pro21,Pro27,His34]-h-amylin (peptide)
peptide: KCNTATCATQRLANFLRHSSPNFGAIPSSTNVGHNTY
modifications: C20 diacid-gGlu on the alpha amino group of the N-terminal residue; disulfide bridge Cys2-Cys7; C-terminal amide
notes: Synthetic acylated analogue of human amylin; also called compound 40
With B1, in assay [1], the “Ratio hCT/hAmylin funct.” value was 16.4 ratio and the “hAmylin-R funct. EC50” value is 0.164 nM. Further, the “hCTR funct. EC50” value in assay [2] is 2.68 nM.

B2: N^α1-[2-[2-[2-[[2-[2-[2-[[(4S)-4-carboxy-4-(19-carboxynonadecanoylamino)butanoyl]amino]ethoxy]ethoxy]acetyl]amino]ethoxy]ethoxy]acetyl]-[Glu14,Arg17,Pro21,Pro27 … (peptide)
peptide: KCNTATCATQRLAEFLRHSSPNFGAIPSSTNVGSNTY
modifications: C20 diacid-gGlu-2xOEG on the alpha amino group of the N-terminal residue; disulfide bridge Cys2-Cys7; C-terminal amide
notes: Synthetic acylated analogue of human amylin; also called compound 19
In the case of B2, in assay [1], the “Ratio hCT/hAmylin funct.” value was determined as 17.4 ratio and the “hAmylin-R funct. EC50” value amounted to 0.307 nM. In addition, the “hCTR funct. EC50” value in assay [2] came to 5.32 nM.

B3: N^α1-[(4S)-4-carboxy-4-(19-carboxynonadecanoylamino)butanoyl]-[Arg17,Pro21,Pro27,Lys35]-h-amylin (peptide)
peptide: KCNTATCATQRLANFLRHSSPNFGAIPSSTNVGSKTY
modifications: C20 diacid-gGlu on the alpha amino group of the N-terminal residue; disulfide bridge Cys2-Cys7; C-terminal amide
notes: Synthetic acylated analogue of human amylin; also called compound 34
Turning to B3, in assay [1], the “Ratio hCT/hAmylin funct.” value was determined as 8.4 ratio and the “hAmylin-R funct. EC50” value was 0.313 nM. Moreover, the “hCTR funct. EC50” value in assay [2] amounted to 2.62 nM.

B4: N^α1-[(4S)-4-carboxy-4-(19-carboxynonadecanoylamino)butanoyl]-[Arg17,Pro21,Pro27,Pro31,Glu35]-h-amylin (peptide)
peptide: {C20 diacid-γGlu}-KCNTATCATQRLANFLRHSSPNFGAIPSSTPVGSETY-NH2
modifications: disulfide 2-7
SMILES: CC[C@H](C)[C@H](NC(=O)[C@H](C)NC(=O)CNC(=O)[C@H](Cc1ccccc1)NC(=O)[C@H](CC(N)=O)NC(=O)[C@@H]1CCCN1C(=O)[C@H](CO)NC(=O)[C@H](CO)NC(=O)[C@H](Cc1c[nH]cn1)NC(=O)[C@H](CCCNC(=N)N)NC(=O)[C@H](CC(C)C)NC(=O)[C@H](Cc1ccccc1)NC(=O)[C@H](CC(N)=O)NC(=O)[C@H](C)NC(=O)[C@H](CC(C)C)NC(=O)[C@H](CCCNC(=N)N)NC(=O)[C@H](CCC(N)=O)NC(=O)[C@@H](NC(=O)[C@H](C)NC(=O)[C@@H]1CSSC[C@H](NC(=O)[C@H](CCCCN)NC(=O)CC[C@H](NC(=O)CCCCCCCCCCCCCCCCCCC(=O)O)C(=O)O)C(=O)N[C@@H](CC(N)=O)C(=O)N[C@@H]([C@@H](C)O)C(=O)N[C@@H](C)C(=O)N[C@@H]([C@@H](C)O)C(=O)N1)[C@@H](C)O)C(=O)N1CCC[C@H]1C(=O)N[C@@H](CO)C(=O)N[C@@H](CO)C(=O)N[C@H](C(=O)N1CCC[C@H]1C(=O)N[C@H](C(=O)NCC(=O)N[C@@H](CO)C(=O)N[C@@H](CCC(=O)O)C(=O)N[C@H](C(=O)N[C@@H](Cc1ccc(O)cc1)C(N)=O)[C@@H](C)O)C(C)C)[C@@H](C)O
notes: Synthetic acylated analogue of human amylin; also called compound 28
B4: in assay [1], the “Ratio hCT/hAmylin funct.” value stood at 9.2 ratio and the “hAmylin-R funct. EC50” value amounted to 0.22 nM. Moreover, in assay [2], the “hCTR funct. EC50” value is 2.03 nM.

B5: N^ε-[2-[2-[2-[[(4S)-4-carboxy-4-(19-carboxynonadecanoylamino)butanoyl]amino]ethoxy]ethoxy]acetyl]Lys[Arg1,Arg17,Pro21,Pro27,His35]-h-amylin (peptide)
peptide: K([AEEA-γGlu-C20 diacid])RCNTATCATQRLANFLRHSSPNFGAIPSSTNVGSHTY-NH2
modifications: disulfide 3-8; N-terminus assumed
SMILES: CC[C@H](C)[C@H](NC(=O)[C@H](C)NC(=O)CNC(=O)[C@H](Cc1ccccc1)NC(=O)[C@H](CC(N)=O)NC(=O)[C@@H]1CCCN1C(=O)[C@H](CO)NC(=O)[C@H](CO)NC(=O)[C@H](Cc1c[nH]cn1)NC(=O)[C@H](CCCNC(=N)N)NC(=O)[C@H](CC(C)C)NC(=O)[C@H](Cc1ccccc1)NC(=O)[C@H](CC(N)=O)NC(=O)[C@H](C)NC(=O)[C@H](CC(C)C)NC(=O)[C@H](CCCNC(=N)N)NC(=O)[C@H](CCC(N)=O)NC(=O)[C@@H](NC(=O)[C@H](C)NC(=O)[C@@H]1CSSC[C@H](NC(=O)[C@H](CCCNC(=N)N)NC(=O)[C@@H](N)CCCCNC(=O)COCCOCCNC(=O)CC[C@H](NC(=O)CCCCCCCCCCCCCCCCCCC(=O)O)C(=O)O)C(=O)N[C@@H](CC(N)=O)C(=O)N[C@@H]([C@@H](C)O)C(=O)N[C@@H](C)C(=O)N[C@@H]([C@@H](C)O)C(=O)N1)[C@@H](C)O)C(=O)N1CCC[C@H]1C(=O)N[C@@H](CO)C(=O)N[C@@H](CO)C(=O)N[C@H](C(=O)N[C@@H](CC(N)=O)C(=O)N[C@H](C(=O)NCC(=O)N[C@@H](CO)C(=O)N[C@@H](Cc1c[nH]cn1)C(=O)N[C@H](C(=O)N[C@@H](Cc1ccc(O)cc1)C(N)=O)[C@@H](C)O)C(C)C)[C@@H](C)O
notes: h-amylin derivative, N-terminally extended by one residue; disulfide bridge and C-terminal amide as told for human amylin; also called compound 45
Turning to B5, the “hCTR funct. EC50” value in assay [3] was 10.1 nM.

B6: N^ε1-[(4S)-4-carboxy-4-(19-carboxynonadecanoylamino)butanoyl]-[Arg17,Pro21,Pro27]-h-amylin (peptide)
peptide: K([γGlu-C20 diacid])CNTATCATQRLANFLRHSSPNFGAIPSSTNVGSNTY-NH2
modifications: disulfide 2-7; N-terminus assumed
SMILES: CC[C@H](C)[C@H](NC(=O)[C@H](C)NC(=O)CNC(=O)[C@H](Cc1ccccc1)NC(=O)[C@H](CC(N)=O)NC(=O)[C@@H]1CCCN1C(=O)[C@H](CO)NC(=O)[C@H](CO)NC(=O)[C@H](Cc1c[nH]cn1)NC(=O)[C@H](CCCNC(=N)N)NC(=O)[C@H](CC(C)C)NC(=O)[C@H](Cc1ccccc1)NC(=O)[C@H](CC(N)=O)NC(=O)[C@H](C)NC(=O)[C@H](CC(C)C)NC(=O)[C@H](CCCNC(=N)N)NC(=O)[C@H](CCC(N)=O)NC(=O)[C@@H](NC(=O)[C@H](C)NC(=O)[C@@H]1CSSC[C@H](NC(=O)[C@@H](N)CCCCNC(=O)CC[C@H](NC(=O)CCCCCCCCCCCCCCCCCCC(=O)O)C(=O)O)C(=O)N[C@@H](CC(N)=O)C(=O)N[C@@H]([C@@H](C)O)C(=O)N[C@@H](C)C(=O)N[C@@H]([C@@H](C)O)C(=O)N1)[C@@H](C)O)C(=O)N1CCC[C@H]1C(=O)N[C@@H](CO)C(=O)N[C@@H](CO)C(=O)N[C@H](C(=O)N[C@@H](CC(N)=O)C(=O)N[C@H](C(=O)NCC(=O)N[C@@H](CO)C(=O)N[C@@H](CC(N)=O)C(=O)N[C@H](C(=O)N[C@@H](Cc1ccc(O)cc1)C(N)=O)[C@@H](C)O)C(C)C)[C@@H](C)O
notes: h-amylin derivative; disulfide bridge and C-terminal amide as told for human amylin; also called compound 48
Take B6: in assay [3], the “hCTR funct. EC50” value was 1.97 nM.
